The values below come from patent publication US20170101466A1.

Test [1] addresses soluble human BLyS (human) (UniProt Q9Y275). Nature of the test: cell-based or functional assay.
Test [2] addresses soluble mouse BLyS (mouse) (UniProt Q9WU72). Nature of the test: cell-based or functional assay.

B1: human TACI (immunoglobulin fusion) (Fc fusion, part only; not given: immunoglobulin part, UniProt O14836 30-110, looked up, part only)
chain, part: AMRSCPEEQYWDPLLGTCMSCKTICNHQSQRTCAAFCRSLSCRKEQGKFYDHLLRDCISCASICGQHPKQCAYFCENKLRS
In the case of B1, the IC50 hBLyS stimulated, mouse splenic B-cell proliferation in test [1] turned out to be 7 ng/mL. This molecule registered an IC50 mBLyS stimulated, mouse splenic B-cell proliferation in test [2] of 7 ng/mL.

B2: 14F11 IgG expressed in HEK293 cells (antibody, V domains shown)
VH: QVQLVQSGAEVKKPGSSVKVSCKASGGTFSSYAISWVRQAPGQGLEWMGRINPNSGGTNYAQKFQGRVTMTRDTSISTAYMELSRLRSDDTFVYYCAREGYDFLTGYTLGGMDVWGQGTTVTVSS
VL: QSVLTQPPSVSAAPGQKVTISCSGSSSNIGNNYVSWYQQLPGTAPKLLIYDNNKRPSGIPDRFSASKSGTSASLAISGLQAEDEADYYCQSYDSSLSGVVFGGGTKLTVLG
Consider B2, for which the hBLyS B-cell proliferation (IC50) in test [1] was 12.
